In patent US20170165338A1:

Target: HLA-A*02 (human)
Experiment: UV-exchange b2m ELISA

## LLYPEPWSV
  peptide exchange yield: > 75%

## KLEENGDLYL
  peptide exchange yield: > 75%

## KLMPGTYTL
  peptide exchange yield: > 75%

## GIVAHIQEV
  peptide exchange yield: 50 to 75%

## ALFDSLRHV
  peptide exchange yield: 50 to 75%

## ILDHEVPSL
  peptide exchange yield: 50 to 75%

## FLVDGSYSI
  peptide exchange yield: 50 to 75%

## GIAGSLKTV
  peptide exchange yield: 50 to 75%

## ALSPSYLTV
  peptide exchange yield: 50 to 75%

## GLLPLLHRA
  peptide exchange yield: > 75%

## ALMAMLVYV
  peptide exchange yield: 20 to 49%

## ILAKDLFEI
  peptide exchange yield: > 75%

## YLDLSHNQL
  peptide exchange yield: 50 to 75%

## YTLDIPVLFGV
  peptide exchange yield: > 75%

## ILLDLTDNRL
  peptide exchange yield: 50 to 75%

## SISDNVWEV
  peptide exchange yield: 50 to 75%

## GLSQITNQL
  peptide exchange yield: 50 to 75%

## AIQDEIRSV
  peptide exchange yield: 50 to 75%

## FVDPNTQEKV
  peptide exchange yield: 20 to 49%

## SLFSDEFKV
  peptide exchange yield: 50 to 75%

## TLDEKVAEL
  peptide exchange yield: 50 to 75%

## TMDSVLVTV
  peptide exchange yield: 50 to 75%

## ALQEELTEL
  peptide exchange yield: 50 to 75%

## RLMEENWNA
  peptide exchange yield: 50 to 75%

## SLPNGKPVSV
  peptide exchange yield: 50 to 75%

## YLLDPSITL
  peptide exchange yield: 50 to 75%

## AMIEEVFEA
  peptide exchange yield: 20 to 49%

## TITETTVEV
  peptide exchange yield: 50 to 75%

## VQLDSIEDLEV
  peptide exchange yield: 50 to 75%

## YIKTELISV
  peptide exchange yield: 50 to 75%

## FLLATEVVTV
  peptide exchange yield: > 75%

## FLLPFSTVYL
  peptide exchange yield: 50 to 75%

## SLADTNSLAVV
  peptide exchange yield: 50 to 75%

## ILAPFSVDL
  peptide exchange yield: 50 to 75%

## FLGPRIIGL
  peptide exchange yield: 50 to 75%

## HLLEGSVGV
  peptide exchange yield: 50 to 75%

## VLIDPQWVLTA
  peptide exchange yield: 50 to 75%

## ALFENTPKA
  peptide exchange yield: 20 to 49%

## LLDSVSRL
  peptide exchange yield: < 20%

## SLFETAWEA
  peptide exchange yield: 50 to 75%

## SQFPLPLAV
  peptide exchange yield: 20 to 49%

## ALLERGELFV
  peptide exchange yield: 50 to 75%

## QVIEDSTGV
  peptide exchange yield: 20 to 49%

## ALNIATHVL
  peptide exchange yield: 50 to 75%

## ILFHGVFYA
  peptide exchange yield: 50 to 75%

## LLFSRLCGA
  peptide exchange yield: > 75%

## KMVGLVVAI
  peptide exchange yield: 50 to 75%

## VLNPLITAV
  peptide exchange yield: 50 to 75%

## SLATKIVEA
  peptide exchange yield: 50 to 75%

## FLHDEKEGIYI
  peptide exchange yield: 50 to 75%

## TVFTDHMLTV
  peptide exchange yield: 20 to 49%

## YLLPLLPAL
  peptide exchange yield: 50 to 75%

## KLLDPQEFTL
  peptide exchange yield: 50 to 75%

## ALFAPLVHL
  peptide exchange yield: 50 to 75%
